In patent publication US20200352995A1:

Columns and labels:
[1] = molecular target: LAG3 (CD223) on BCMA-specific CTL (human) (UniProt P18627); experiment: cell-based or functional assay
[2] = molecular target: OX40 (CD134) on BCMA-specific CTL (human) (UniProt P43489); experiment: cell-based or functional assay
OX40 (CD134) on BCMA-specific CTL (human), sequence (P43489 29-277): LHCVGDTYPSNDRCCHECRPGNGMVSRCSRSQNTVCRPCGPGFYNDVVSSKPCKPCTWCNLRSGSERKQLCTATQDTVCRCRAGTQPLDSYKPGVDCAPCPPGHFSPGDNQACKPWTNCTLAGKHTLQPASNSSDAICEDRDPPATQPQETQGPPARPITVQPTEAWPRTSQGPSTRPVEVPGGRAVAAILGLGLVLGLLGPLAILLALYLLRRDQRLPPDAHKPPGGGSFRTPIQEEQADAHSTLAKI

LAG3 (CD223) on BCMA-specific CTL (human), sequence (P18627 23-525): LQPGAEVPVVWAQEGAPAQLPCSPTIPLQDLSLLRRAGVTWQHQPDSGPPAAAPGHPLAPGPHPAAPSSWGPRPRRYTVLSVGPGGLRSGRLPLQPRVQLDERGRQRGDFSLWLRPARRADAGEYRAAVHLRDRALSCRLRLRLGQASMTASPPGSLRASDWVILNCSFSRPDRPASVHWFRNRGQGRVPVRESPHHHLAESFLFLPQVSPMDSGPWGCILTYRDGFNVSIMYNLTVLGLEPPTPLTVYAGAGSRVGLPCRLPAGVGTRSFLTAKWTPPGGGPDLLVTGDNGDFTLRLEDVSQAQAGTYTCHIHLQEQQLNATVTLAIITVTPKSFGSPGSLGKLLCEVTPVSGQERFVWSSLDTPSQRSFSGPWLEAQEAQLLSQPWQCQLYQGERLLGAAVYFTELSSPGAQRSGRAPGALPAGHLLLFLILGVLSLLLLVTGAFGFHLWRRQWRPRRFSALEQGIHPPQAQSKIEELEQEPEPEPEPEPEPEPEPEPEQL

Row | Substance | cytotoxic activity (CD107a degranulation) by memory CTL against HLA-A2+ McCAR MM cells [1] [%] | cytotoxic activity (CD107a degranulation) by memory CTL against HLA-A2+ U266 MM cells [1] [%] | cytotoxic activity (CD107a degranulation) by memory CTL against HLA-A2+ McCAR MM cells [2] [%] | cytotoxic activity (CD107a degranulation) by memory CTL against HLA-A2+ U266 MM cells [2] [%]
1 | Clinical grade mAb to LAG3 (Bristol-Myers Squibb) (antibody) | 14.5 | 35.8 | – | –
2 | Clinical grade mAb to OX40 (Bristol-Myers Squibb) (antibody) | – | – | 20 | 39.5
